# Data from IntAct's records for PubMed 18256688.
# B1: Regulator of nonsense transcripts 1 (Homo sapiens), Q92900 (parent)
# chain: MSVEAYGPSSQTLTFLDTEEAELLGADTQGSEFEFTDFTLPSQTQTPPGGPGGPGGGGAGGPGGAGAGAAAGQLDAQVGPEGILQNGAVDDSVAKTSQLLAELNFEEDEEDTYYTKDLPIHACSYCGIHDPACVVYCNTSKKWFCNGRGNTSGSHIVNHLVRAKCKEVTLHKDGPLGETVLECYNCGCRNVFLLGFIPAKADSVVVLLCRQPCASQSSLKDINWDSSQWQPLIQDRCFLSWLVKIPSEQEQLRARQITAQQINKLEELWKENPSATLEDLEKPGVDEEPQHVLLRYEDAYQYQNIFGPLVKLEADYDKKLKESQTQDNITVRWDLGLNKKRIAYFTLPKTDSGNEDLVIIWLRDMRLMQGDEICLRYKGDLAPLWKGIGHVIKVPDNYGDEIAIELRSSVGAPVEVTHNFQVDFVWKSTSFDRMQSALKTFAVDETSVSGYIYHKLLGHEVEDVIIKCQLPKRFTAQGLPDLNHSQVYAVKTVLQRPLSLIQGPPGTGKTVTSATIVYHLARQGNGPVLVCAPSNIAVDQLTEKIHQTGLKVVRLCAKSREAIDSPVSFLALHNQIRNMDSMPELQKLQQLKDETGELSSADEKRYRALKRTAERELLMNADVICCTCVGAGDPRLAKMQFRSILIDESTQATEPECMVPVVLGAKQLILVGDHCQLGPVVMCKKAAKAGLSQSLFERLVVLGIRPIRLQVQYRMHPALSAFPSNIFYEGSLQNGVTAADRVKKGFDFQWPQPDKPMFFYVTQGQEEIASSGTSYLNRTEAANVEKITTKLLKAGAKPDQIGIITPYEGQRSYLVQYMQFSGSLHTKLYQEVEIASVDAFQGREKDFIILSCVRANEHQGIGFLNDPRRLNVALTRARYGVIIVGNPKALSKQPLWNHLLNYYKEQKVLVEGPLNNLRESLMQFSKPRKLVNTINPGARFMTTAMYDAREAIIPGSVYDRSSQGRPSSMYFQTHDQIGMISAGPSHVAAMNIPIPFNLVMPPMPPPGYFGQANGPAAGRGTPKGKTGRGGRQKNRFGLPGPSQTNLPNSQASQDVASQPFSQGALTQGYISMSQPSQMSQPGLSQPELSQDSYLGDEFKSQIDVALSQDSTYQGERAYQHGGVTGLSQY
# Variants of: B1
# Details: with rent2_human UPF2, Q9HAU5
# Sequence of rent2_human UPF2, Q9HAU5 (Q9HAU5 whole entry): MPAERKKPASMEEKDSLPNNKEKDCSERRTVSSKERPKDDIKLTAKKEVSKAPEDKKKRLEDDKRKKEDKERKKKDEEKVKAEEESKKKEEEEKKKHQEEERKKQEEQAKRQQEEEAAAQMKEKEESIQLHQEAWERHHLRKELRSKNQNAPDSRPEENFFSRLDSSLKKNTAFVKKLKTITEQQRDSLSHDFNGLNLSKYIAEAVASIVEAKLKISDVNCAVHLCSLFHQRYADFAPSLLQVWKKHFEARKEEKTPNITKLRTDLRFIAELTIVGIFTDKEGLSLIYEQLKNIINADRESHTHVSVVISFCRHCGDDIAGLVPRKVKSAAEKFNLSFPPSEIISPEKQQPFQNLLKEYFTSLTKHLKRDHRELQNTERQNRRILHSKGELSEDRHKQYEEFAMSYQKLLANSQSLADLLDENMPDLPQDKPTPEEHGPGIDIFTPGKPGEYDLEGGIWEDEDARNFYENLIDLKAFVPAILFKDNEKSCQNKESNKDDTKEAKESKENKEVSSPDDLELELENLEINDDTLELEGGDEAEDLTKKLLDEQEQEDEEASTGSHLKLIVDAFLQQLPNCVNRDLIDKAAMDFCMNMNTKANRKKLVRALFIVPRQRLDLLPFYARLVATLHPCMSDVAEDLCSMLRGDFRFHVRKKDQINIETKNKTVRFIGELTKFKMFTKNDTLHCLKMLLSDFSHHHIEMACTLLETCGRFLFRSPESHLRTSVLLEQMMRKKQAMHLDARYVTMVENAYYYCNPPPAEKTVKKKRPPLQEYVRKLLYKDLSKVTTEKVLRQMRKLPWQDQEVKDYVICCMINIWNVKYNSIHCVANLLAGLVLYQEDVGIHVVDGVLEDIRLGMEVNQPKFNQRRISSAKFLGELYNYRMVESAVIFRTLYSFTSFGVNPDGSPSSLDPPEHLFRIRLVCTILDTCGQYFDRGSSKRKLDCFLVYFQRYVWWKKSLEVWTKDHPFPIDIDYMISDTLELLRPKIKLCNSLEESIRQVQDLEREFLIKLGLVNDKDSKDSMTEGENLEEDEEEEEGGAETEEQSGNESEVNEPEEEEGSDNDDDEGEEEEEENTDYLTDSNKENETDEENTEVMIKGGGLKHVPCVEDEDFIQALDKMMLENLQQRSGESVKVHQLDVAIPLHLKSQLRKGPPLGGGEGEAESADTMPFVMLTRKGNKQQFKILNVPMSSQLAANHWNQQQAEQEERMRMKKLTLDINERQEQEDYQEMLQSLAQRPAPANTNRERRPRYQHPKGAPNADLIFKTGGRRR
row,effect of a mutation on the interaction,Variant
1,disrupting interaction,C126S

# Variants of: B1
# Details: with rent2_human UPF2, Q9HAU5
# Remark: another data set of the same source
row,effect of a mutation on the interaction,Variant
1,disrupting interaction,V204D
2,disrupting interaction,V205I

# Variants of: B1
# Details: with rent2_human UPF2, Q9HAU5
# Remark: another data set of the same source
row,effect of a mutation on the interaction,Variant
1,disrupting interaction,E182R
2,disrupting interaction,C183V
3,disrupting interaction,Y184D
4,disrupting interaction,L181V
